# Measurements published in the DeepSol protein solubility set.
# Experiment: soluble on expression in E. coli; label from the status in PepcDB or PDB records
row,Sequence,soluble on expression in E. coli
1,MSLTTELVDWTHEQKCRKAVAALEKNGFTAVYCPSGREAFDYILTEAVDARSIGFGGSLSVVDLQVIDRLREMDKELLIHGLPGLSLEERVAIMRRQLTCDLFLTGTNALTLSGWLVNIDATGNRVASMFFGPRTVIVVAGRNKIVDGGVTEAIARVKEWASPPNARRLSYKTPCATTGFCSDCNSPDRICRITTVIDRNPRLTDLRVLVVNEDMGLLEHHHHHH,soluble
2,MSLTTMKEIAEQTGVSISTVSLVLNGRDEGRVNPALAKLVRNKATELGYKINPLARSLRTNKTRILGFISEEVATTPYAGGIILGAQDAASAYGYMLFTVSTDGKASEENEIATLKRYGVDGFFYSKMSNRIAHVPESLSDYPVVMVDATDYENKVPSVEPDEFMIGYDATIRLLQADCKRIAYVGCAENMIAQDGRLAGYCTALQEAGRAFNPSLVCNVMNDGPALRAVNKLFDDEHPDGFFCFNDARAWYVYECAARRGLTVGKDISVVGVDNHRVFAETLEPQLTTVELPHYEMGYWSACKLISMIEGKDVDTSEGHHHHHH,not soluble
3,MSLTTSFQDTEFFENQIFNTGKYNCLILRTAMNVLREHANLDIVYGGRAIRQLIYETVDTISAMEGVDKKATWLKLISLCDQFRKTGQESLSLAEYTEDFNFESIALQVDAFSLFAKPHDFQVFSVFLEDSEKGKLATILSSLTQKFSNKSRFKICQALLERGQISSSSATELYDEFIQSKVDDTEAIDFQNRLAEVSLKTIREMIFSKTREEDTEMRTASDSSVSPFLRLNAISSLRDIKDAHEKILIDMAIIFLLFDPREETVELLNAIVKRLSSYAMLEHIFCTCFNDQGTELESHSLSKPENSVFWISVADKFPALKQLINGGDMAGAFDYLVEKLDKSYDEVILNVVIELLNRGNGEVVRKNYIKSLNPNRLIDRILIGLVYLLTDDVDNFRATFEDFAETLLLQNEQNKTDAPLEDRLNYKKEVSDLLNAVFASSSNPAAQKSNYYHTLFALAKSQAKVLRHRSHENIISPNSTSSAEAKFIKAALLFEQKAISYLKQVVKSEHLKFNLDDAYLNVYELGLYLQDYKSVYESLQNLSPVADEYDYNYLMKRYLSRLISQGSISTIFPPNDNKLYRDNYLLIDSVLLDLANNELVLASALTFYEYLYSWRLLGSATKVDPTELTDKRGAAEALYMFITRFKLEQPDLLSSTSEQSEDIKQYKLKVLELYLMILNCLQSFESIEDQWLVKSQTNDSLAVVKLNEITLEYYNWLKEIKDEEGHHHHHH,not soluble
4,MSLTVKMGFIGFGKSANRYHLPYVMIRETLEVKTIFDLHVNEKAAAPFKEKGVNFTADLNELLTDPEIELITICTPAHTHYDLAKQAILAGKSVIVEKPFCDTLEHAEELFALGQEKGVVVMPYQNRRFDGDYLAMKQVVEQGFLGEINEVETHIDYYRPGSITEQGPKENGSFYGLGIHLMDRMIALFGRPDQVTYDIRNNEVSEAVDNYFDVDLHYGSKLKVKVKTNHSVASPYPRFIVHGSNGSFIKYGEDQQENDLKAGIMPDAPGFGEDSPMYYGEVTYRNGNGDWIKKQIKTPVGDYGRYYDAVYETLKNGAPQLVTKEQALTNIEILEAGFLNPSPSVYHLKENEGHHHHHH,soluble
5,MSLTWYHELGIKYPLFQGGMAWASNAELVAAVSNNGALGIIGSGGRTANELRRMIRKTKTLTSQPFGVNLMLLDKNIKQLLEVICEEKISVVTTGAGSPKEIIDTIIANNIKLFPVVPNKEIALKMLNLPISGIIVEGNEAGGHVGSQNLASLLKEIAPICPLPLIAAGGIYDHHTASLANILGANGVQVGTAFLLAKECQISPIYQELICKGEENGTSLISDKNGHLTRLLNISSEYPLNKSLKAAVEKGDLINGAFMAGSSSAYLEKIEPVENIIQRIMKKEGHHHHHH,not soluble
6,MSLVERALQVGSPAPDFALPNAVGREVRLSSVTARGPSVITFYRGAWCPYCSLQLRAYQKILPQLKLLGGELLAISPQTPDKTQATLLKNFLEYEVLSDVGNRVAKRFGLVYPVGAEVRRIYLGFGVDLAEYNGDDSWELPLPGTFVIDRTMTVRLSFVDADYTRRLEPAAILDTLRAMRDVGGIPEGHHHHHH,not soluble
7,MSLVIITDATEADLDQIFQIETESFEDPYPYSLLRAYLFLANKLYLVAKQREKVVGYIIGIIQYGYRGHIVSIAVEPIYRKQGIGAKLLNEIEERFKLNGARYSYLEVNTNNLSAISFYRANGYLIMYVRKNYYGRDKHAFVMVKNLYEGHHHHHH,soluble
8,MSLVIRRLYQFCASHVVRNCSSLKCAQNIHGHNYEVEVFIETNRLDNANMALDFGLMQQEMQVFIESFDHAHHFWDKESLEFQRFIENHCVRYVKCSFNLSAESYALMFLYYLTKILQKSVFSNDEGELKVSSVRVHETKNGYAESFLKDEGHHHHHH,soluble
9,MSLVKISNVRVRPLVLPLKQPYHWSYGIRESFAVNLIEIEADDGTVGIGECTVAPDQTGTAAILYRLAKHLVGHSPHDVAPLIARIFHQEYLGHGANIMRAANQIFSGIDMAMWDLQGKLAGLPVHQLLGGAHRKAVGYFYFLQGETAEELARDAAVGHAQGERVFYLKVGRGEKLDLEITAAVRGEIGDARLRLDANEGWSVHDAINMCRKLEKYDIEFIEQPTVSWSIPAMAHVREKVGIPIVADQAAFTLYDVYEICRQRAADMICIGPREIGGIQPMMKAAAVAEAAGLKICIHSSFTTGITTCAEHHIGLAIPNLDDGNQIMWQLVQEDIVSSPDLTPKNGWLDAFRKPGLGFQLAEDLVAEGEGRYAASREGHHHHHH,soluble
10,MSLVKLKNLTLYLWAVFVVGCTSVPEVSTQAQNPANNKTVSLAELNWQELSLPADINFEFNEKSQVLLDNNSTGPVASFVIPTDRGPVDMVLTSHVGKELTLYEPNVLVTNSKGGVFYHIKSNEFKYIPARLLDGDRVQKQFTIVPQIGADQVNVLIYTTSEDLKGSTTVIHPAKAFAIGTGTQPPMIPDLTAVHSEYGQLNLTVTAVSLTNRTPIRPAIDYVPEIEAKSAYYLNSIQNSVEQGDIDHAMTLVSEAEKLGIPSARATFINAVQSRNEHKEGHHHHHH,soluble
11,MSLVPHHQPCPPASSLSAGPRGGVIMLILKNVTAVQLHPAKVQEGVDIAIENDVIVAIGDALTQRYPDASYKEMHGRIVMPGIVCSHNHFYSGLSRGIMANIAPSPDFISTLKNLWWRLDRALDEESLYYSGLICSLEAIKSGCTSVIDHHASPAYIGGSLSTLRDAFLKVGLRAMTCFETTDRNNGIKELQEGVEENIRFARQIDEAKKAATEPYLVEAHIGAHAPFTVPDAGLEMLREAVNATGRGLHIHAAEDLYDVSYSHHWYGKDLLARLAQFDLIDSKTLVAHGLYLSKDDIALLNQRDAFLVHNARSNMNNHVGYNHHLSDIRNLALGTDGIGSDMFEEMKFAFFKHRDAGGPLWPDSFAKALTNGNELMSRNFGAKFGLLEAGYKADLTICDYNSPTPLLADNIAGHIAFGMGSGSVHSVMVNGVMVYEDRQFNFDCDSIYAQARKAAASMWRRMDALAEGHHHHHH,soluble
12,MSLVQLYVSDSVSRISFADGRVIVWSEELGESQYPIETLDGITLFGRPTMTTPFIVEMLKRERDIQLFTTDGHYQGRISTPDVSYAPRLRQQVHRTDDPAFCLSLSKRIVSRKILNQQALIRAHTSGQDVAESIRTMKHSLAWVDRSGSLAELNGFEGNAAKAYFTALGHLVPQEFAFQGRSTRPPLDAFNSMVSLGYSLLYKNIIGAIERHSLNAYIGFLHQDSRGHATLASDLMEVWRAPIIDDTVLRLIADGVVDTRAFSKNSDTGAVFATREATRSIARAFGNRIARTATYIKGDPHRYTFQYALDLQLQSLVRVIEAEGHHHHHH,not soluble
13,MSLVRMRVGKFDYLNNFLPYYFLNEKVEIVEANPREMASMLLSGRIDYAPVPAFFYLKNRERLRHYEFCVASEGKVLSVVVVSRKKELDDGSIAVTPHSLTSVNLLKILLAERGMKNMLVEVNTAKASEMLELCPHALVIGDEAIKARMIYKVVMDLGEEWYELTSLPAVFGISASLKETNAEEMDRKILMATEEGYRRFDEVVRAAEKAFKMPREFLEEYFRTLKFRLSSKERRGLDEFEKYCRDYGLLEEGHHHHHH,not soluble
14,MSLVRQEPLRPDQPLEMGFEYRSAVRTVRTDSTGLIIPAPTARFSLNESPWRSCKGGMMAGMSSLVRIVNAGVPGSQDRVDVVLRDGVVASVGPAGTVSASDGTMQTKAHTTSLAYATNAIASGGVSIPTSASAPADETTIDADGLWVIPGLWDCHTHFTQWVKTLGRLDLINARSAAEAMDMLRRHLDERRAADTLDPDAFVVGMRFRHSLWADDEQPTLAAIDAVTGEQPVALSSADMHCGWVNSAAARRLGVHVDESGLVGELEWFNAYTAFDKAPGAAEETDRLLREAEQDAASKGVVGIRDYEMAENIDTWINRFAAGINGLRVDAGVYPERLRAAIDAGWHTGKELPGSAGLGHVGAMKLISDGSLNTRSAYCSTPYSGIEPLTYGTLSYTPQQIEDYMRLATEHGFDIACHAIGDEANTIALNAVAATHAHGSIEHAQMLKPVDIPRFAELGLTASIQPQHAMDDRDVITRFWANPAGIPYPFRALHDAGTTLRMGSDAPVAPLDPWLAISAAVLGTESSDREPFQPEQCLDVHTSLAASTATGRDRLASGDPADVVLLDADPYAADTPEAMRAMPQHVVMTLLCGERTYEGHHHHHH,not soluble
15,MSLVSIDLPIEGRLARYDLTGRPVPFNSRDAKAFSRVAFAAAHVVADPLADNDPWLAPAIDWERTLAFRHRLWDLGLGVAESMDTAQRGMGLGWPEARELIRRSLAEARGRPDALIACGAGTDHLAPGPDVSIDDILAAYESQIEAIEAEGGRIILMASRALAAAAKGPEDYIRVYDRVLSQVKEPVIIHWLGEMFDPALEGYWGNADHMAAMKTCLDVLEAHAAKVDGIKISLLSKEKEIVMRRQLPKGVRMYTGDDFNYAELIAGDEEGHSDALLGIFDAIAPVASAALEALGSGRNGEFFELLEPTVPLSRHIFKAPTRFYKTGVVFLAYLNGLQDHFVMIGGQQSARSLVHLAELFRLADKAGALADPELATARMRRVLAMHGVEEGHHHHHH,soluble
16,MSLVSTRLNDSQCLVQFSCNRFAKILLGQTLIWVNPSNTRKWGKSKKVNPQITSMEPLELLKKYVRDEKLIKHCIATAAVMKSLARELGEDEEKWWTIGILHDIDYEQTQGDMEKHGLVGAEILLKEGVEEEIAEVVKRHNHMLFGDYEKPVEIALQAADSVSGLVIACALVKGGKITEVTPKTVKKKFKEKSFAAGCDRDRIRMIEKLGMPLEKLYEVAIRGLTEVKDELGLS,not soluble
17,MSLVTVSDVKQYHFCKAIPWINYVMGYREPSTFSMEEGKKISYEEVVKSLNLTTPVKYEVCLSYNGLSGCIDILAGDRKYTVVEVKAFKRGNFSHFRYQLLAYAYLVRKRLGIVERAILVMEGKKVLEIEPTEEHYRYIENVVKKIEEIVNSEKLPAVNVEKCDFCQYRRICPVSVWSEGHHHHHH,soluble
18,MSLWKNTIHSISSNLSLKNPATKDELTDIQKCLHVELPNDLYQLLQETNGIEGEYGDFIWSASKIKTENMSMRNIVDFKDLYMPFDCLLFFADGGNGDLFGYSILNGKVQRDDIYVWNHENDSRTWVALSLKTFMEWWESGKITIEGHHHHHH,soluble
19,MSLWLQISNARIVCEDHLVEAGLAICDGLIDCFEQGGTSKAEAIDFDGDFLLPGLIDLHTDSVEHFMQPRPGVQWPSPLAAVLAHDWQLLGSGITTVLDALALGDYDSGGTRTAMLNDAIDGLTQARASGLLKTDHYFHFRCELSDPALLPIVERHVDNPGLRLISMMDHTPGQRQWHNLTLYREFRRKKNARVWNEEEFALHLAERREHQQQYVPPGRSTIGHLCRERDIRIASHDDTAAADVDESRGDGITISEFPTTVEAASRARELGMKIVMGSPNIILGGSHSGNVSALELADRGLLDVLTSDYVPGSLLHAAFALAAKGFDLPEAVAMVTKTPADLLGFSDRGRIAPGLRADLIRVRLVEGVPVIRNIWVAGRQYLEGHHHHHH,not soluble
